In patent publication US10736933B2, “Peptide-induced NK cell activation” (priority 2015, dated 2020):

Legend:
HLA-Cw*0102 = HLA-Cw*0102 (Homo sapiens, UniProt P10321, A176E/A330V/A35S/A97T/C350S/D114A/D33F/L171W/L180R/L218V/M285V/M309V/M331V/P208H/Q277E/Q291P/R121W/R243W/R30K/S123C/S140Y/S297R/T329A/T363A/V272M/V319A); assay: Peptide binding to HLA-Cw*0102 on L721.174 cells (cell surface MHC class I, flow cytometry); format: cell-based; details: increasing concentrations of peptide, overnight at 26° C.
Protocol: (§1) The HLA-Cw*0102-positive cell line L721.174 was incubated with increasing concentrations of the LNPSVAATL (SEQ ID NO: 5) peptide or a control peptide VAPWNSLSL (SEQ ID NO: 11). Cells were stained for cell surface of MHC class I and analysed by flow cytometry. The mean fluorescence intensity of cell surface MHC Class I was plotted against the peptide concentration.
as §1, with “HLA-Cw*0102 • positive” for “HLA-Cw*0102-positive”, “peptides IVDLMCHATF” for “LNPSVAATL”, “1); VIDAMCHATL (SEQ ID NO: 2); AANVMAASL (SEQ ID NO: 3); and FLSDVPVATL (SEQ ID NO: 4)” for “5) peptide”, “[…].” for “VAPWNSLSL (SEQ ID NO: 11).”
3×10^5 cells were used per condition. Following washing in PBS the cells were stained for cell surface of MHC class I and analysed by flow cytometry. The mean fluorescence intensity of cell surface MHC Class I was plotted against the peptide concentration.
With reference to FIG. 12, the HLA-Cw*0102-positive cell line L721.174 was incubated with increasing concentrations of the peptides IVDLMCHATF (SEQ ID NO: 1), VIDAMCHATL (SEQ ID NO: 2), AANVMAASL (SEQ ID NO: 3); and FLSDVPVATL (SEQ ID NO: 4) overnight at 26° C. 3×10^5 cells were used per condition. Following washing in PBS the cells were stained for cell surface of MHC class I and analysed by flow cytometry. The mean fluorescence intensity of cell surface MHC Class I was plotted against the peptide concentration.

KIR2DS2 = molecular target: T1, KIR2DS2 (Homo sapiens, UniProt P43631); assay: KIR2DS2 tetramer (KIR2DS2-PE) staining of peptide-loaded L721.174 cells; format: binding; details: L721.174 cells incubated overnight at 26° C. with peptide, flow cytometry
T1 construct: made in house
T1 sequence (P43631 22-245 limits assumed): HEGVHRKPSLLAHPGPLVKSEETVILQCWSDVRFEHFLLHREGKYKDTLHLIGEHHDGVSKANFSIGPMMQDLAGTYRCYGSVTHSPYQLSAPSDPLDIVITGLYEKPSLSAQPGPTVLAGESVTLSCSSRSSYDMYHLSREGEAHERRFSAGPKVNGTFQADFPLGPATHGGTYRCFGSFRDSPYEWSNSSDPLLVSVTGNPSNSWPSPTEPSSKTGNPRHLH
Protocol: A. The KIR2DS2 protein was expressed with a biotinylation C-terminal tag. Following biotinylation with the BirA enzyme, the KIR2DS2 protein was incubated with streptavidin-phycoerythrin to form fluorescent KIR2DS2-tetramers (KIR2DS2-PE). L721.174 cells were then incubated with indicated peptides. Cells were then stained with KIR2DS2-PE and analysed by flow cytometry. Shown are histogram plots. The bold numbers represent the mean fluorescent staining intensity of the KIR2DS2-PE staining of the cells in the presence of peptide and the non-bold numbers the staining in the absence of peptide. B. Represents the mean and standard error fluorescent intensities of the experiment in “A” following replicate experiments.
A. L721.174 cells were incubated with indicated peptides. Cells were then stained with KIR2DS2-PE (see FIG. 4) and analysed by flow cytometry. Shown are histogram plots. The bold numbers represent the mean fluorescent staining intensity of the KIR2DS2-PE staining of the cells in the presence of peptide and the non-bold numbers the staining in the absence of peptide. B. Represents the mean and standard error fluorescent intensities of the experiment in “A” following replicate experiments.
FIG. 13—KIR2DS2 tetramer staining on 174 cells with and without peptides. Peptides tested include IVDLMCHATF (SEQ ID NO: 1); VIDAMCHATL (SEQ ID NO: 2); AANVMAASL (SEQ ID NO: 3); and FLSDVPVATL (SEQ ID NO: 4). A negative control peptide VAPWNSFAL (SEQ ID NO: 12) and positive control peptide LNPSVAATL (SEQ ID NO: 5) were included. The mean fluorescence intensity of the KIR2DS2 tetramer staining is shown in the right hand corner of the graph.
With reference to FIG. 4A, the KIR2DS2 protein was expressed as a recombinant protein with a biotinylation C-terminal tag. Following biotinylation with the BirA enzyme, the KIR2DS2 protein was incubated with streptavidin-phycoerythrin to form fluorescent KIR2DS2-tetramers (KIR2DS2-PE). 3×10^5 L721.174 cells were then incubated overnight at 26° C. with indicated peptides at a concentration of […]. Cells were then stained with KIR2DS2-PE and analysed by flow cytometry. Shown are histogram plots. The bold numbers represent the mean fluorescent staining intensity of the KIR2DS2-PE staining of the cells in the presence of peptide and the non-bold numbers the staining in the absence of peptide. With reference to FIG. 4B, panel B represents the mean and standard error fluorescent intensities of the experiment in “A” following replicate experiments.
With reference to FIG. 5A, 3×10^5 L721.174 cells were incubated overnight at 26° C. with indicated peptides at a concentration of 200 μM. Cells were then stained with KIR2DS2-PE (see FIG. 4) and analysed by flow cytometry. Shown are histogram plots. The bold numbers represent the mean fluorescent staining intensity of the KIR2DS2-PE staining of the cells in the presence of peptide and the non-bold numbers the staining in the absence of peptide. With reference to FIG. 5B, panel B represents the mean and standard error fluorescent intensities of the experiment in “A” following replicate experiments.
With reference to FIG. 13, the KIR2DS2 protein was expressed as a recombinant protein with a biotinylation C-terminal tag. Following biotinylation with the BirA enzyme, the KIR2DS2 protein was incubated with streptavidin-phycoerythrin to form fluorescent KIR2DS2-tetramers (KIR2DS2-PE). […] Cells were then stained with KIR2DS2-PE and analysed by flow cytometry. […]

Sequence | binding to HLA-Cw*0102 (mean fluorescence intensity of cell surface MHC Class I) (HLA-Cw*0102) | KIR2DS2-PE tetramer binding to HLA-C*0102 and peptide (KIR2DS2)
LNPSVAATL [peptide recognized by KIR2DS2-positive NK cells] | binds HLA-Cw*0102 | KIR2DS2 binds
IVDLMCHATF [Dengue virus peptide] | bind HLA-Cw*0102 | KIR2DS2 BINDS
